The source of these data is patent US20260274955A1 (JANUX THERAPEUTICS, published 2026).

One assay deals with T1, anti-CD28 Fab (SEQ ID NOs: 202, 203).
T1 construct: biotinylated and captured on neutravidin coated plates in the phage ELISA
T1 sequence (VH, as listed by the source, chain 1 of 2): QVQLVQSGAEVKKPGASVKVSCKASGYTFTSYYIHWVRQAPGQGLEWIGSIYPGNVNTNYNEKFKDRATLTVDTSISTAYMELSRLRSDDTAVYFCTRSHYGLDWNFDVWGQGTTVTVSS
T1 sequence (VL, as listed by the source, chain 2 of 2): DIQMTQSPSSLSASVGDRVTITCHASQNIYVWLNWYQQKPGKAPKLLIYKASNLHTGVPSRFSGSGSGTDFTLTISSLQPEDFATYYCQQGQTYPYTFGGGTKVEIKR
Briefly: phage binding ELISA; biotinylated Fab on neutravidin plate.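 Note: clonal phage supernatants added to Fab wells pretreated with CD28 antigen or with blocking buffer only, bound phage read out via HRP-linked anti-M13 antibody.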 In general terms: An ELISA detects its analyte on a solid surface through an enzyme-linked reagent.
Protocol: Clonal phage were harvested as crude supernatants and screened via standard ELISAs. […] Prior to the addition of clonal phage, wells were incubated with blocking buffer and CD28 antigen or blocking buffer alone. Without washing or aspirating, clonal phage supernatants were then added to the wells and incubated for a short time. Wells were then washed followed by detection of bound phage using a horse radish conjugated anti-M13 antibody.
For the molecule YCDGHAAEYMDKCL [Phage-428], the “Anti-CD28 Fab (SEQ ID NOs: 202, 203) signal” value (“Anti-CD28 Fab” for short) was determined as 1.72. The same measure, in the same setting: in the case of YCDGHVEPYLSKCL [Phage-393] it was 1.76; in that of YCDGHSREYMVKCL [Phage-431], 1.71; in that of YCAGHSMEYMAKCL [Phage-435], 1.71. On to YCDGHAEEYLWKCL [Phage-418], for which the “Anti-CD28 Fab” value turned out to be 1.73.

As to YCEGHLPQYFMKCL [Phage-440], the “Anti-CD28 Fab” value is 1.7. For the molecule YCDGHSPQYMQKCL [Phage-390], the “Anti-CD28 Fab” value came to 1.76. In the case of YCAGHLPEYLDKCL [Phage-430], the “Anti-CD28 Fab” value is 1.71. As for YCDGHAPVYMAKCL [Phage-400], the “Anti-CD28 Fab” value was determined as 1.75. Still for that read-out and setting: in the case of YCDGHAIQYIGKCL [Phage-422] it was 1.72; in that of YCDGHKPQYMEKCL [Phage-394], 1.76.

In the case of YCDGHSGVYMWKCL [Phage-420], the “Anti-CD28 Fab” value worked out at 1.73. Consider YCDGHLPEYFLKCL [Phage-436], for which the “Anti-CD28 Fab” value is 1.71. Still for that read-out and setting: in the case of YCDGHSSEYIVKCL [Phage-352] it was 1.83; in that of YCDGHAAEFMMKCL [Phage-423], 1.72. Same read-out and setting: the figure for YCDGHLPMYFAKCM [Phage-351] is 1.83; for YCDGHLQIYMHKCL [Phage-434] it is 1.71; for YCDGHLEEYMVKCM [Phage-413] it is 1.73. Same read-out and setting: in the case of YCEGHAIEYLAKCL [Phage-409] it was 1.74; in that of YCEGHSAEFMTKCL [Phage-363], 1.81. Take YCDGHLDIYLAKCL [Phage-303]: the “Anti-CD28 Fab” value was 1.91. Regarding YCEGHSSEYMEKCL [Phage-302], the “Anti-CD28 Fab” value amounted to 1.91.

For the molecule YCEGHSPMYMQKCM [Phage-355], the “Anti-CD28 Fab” value stood at 1.83. For the molecule YCDGHLPEYIFKCL [Phage-416], the “Anti-CD28 Fab” value is 1.73. Same read-out and setting: in the case of YCEGHLAQYMWKCL [Phage-300] it was 1.91; in that of YCEGHLAQYMNKCL [Phage-396], 1.76.

In the case of YCAGHTQEYMYKCL [Phage-438], the “Anti-CD28 Fab” value came out at 1.7.

With YCDGHIGEYMVKCL [Phage-395], the “Anti-CD28 Fab” value came to 1.76. Still for that read-out and setting: in the case of YCEGHLAVYMQKCL [Phage-301] it was 1.91.

With YCEGHLQTYMAKCL [Phage-414], the “Anti-CD28 Fab” value worked out at 1.73.

YCDGHSLAYIAKCL [Phage-437]: the “Anti-CD28 Fab” value turned out to be 1.7. Still for that read-out and setting: in the case of YCDGHSWEYMEKCL [Phage-441] it was 1.7; in that of YCEGHSEEYMSKCL [Phage-304], 1.91; in that of YCQGHLPVYMEKCL [Phage-427], 1.72. The same measure, in the same setting: the figure for YCDGHLPLYMHKCL [Phage-357] is 1.82; for YCDGHLQIYLWKCL [Phage-426] it is 1.72. On the same count and under the same terms, the figure for YCDGHSAEYMEKCI [Phage-356] is 1.83; for YCDGHTQAYIQKCL [Phage-421] it is 1.73; for YCEGHAPQYLNKCL [Phage-358] it is 1.82.

With YCEGHSAEYIFKCL [Phage-354], the “Anti-CD28 Fab” value is 1.83. Turning to YCDGHVQEYMQKCL [Phage-397], the “Anti-CD28 Fab” value is 1.76.

For the molecule YCDGHAEKYMQKCL [Phage-408], the “Anti-CD28 Fab” value came to 1.74. Still for that read-out and setting: the figure for YCEGHSVQYMQKCL [Phage-429] is 1.71. On the same count and under the same terms, in the case of YCEGHSEMYMKKCL [Phage-425] it was 1.72. As for YCDGHSLQYMDKCL [Phage-405], the “Anti-CD28 Fab” value came out at 1.75.

On to YCDGHAREYMTKCL [Phage-359], for which the “Anti-CD28 Fab” value is 1.82. On the same count and under the same terms, the figure for YCHGHLQEYMAKCL [Phage-398] is 1.76; for YCDGHYPEYMSKCL [Phage-406] it is 1.75. Still for that read-out and setting: the figure for YCDGHSSMYMAKCL [Phage-361] is 1.82; for YCAGHSQEHIQKCL [Phage-415] it is 1.73; for YCDGHLVEYRGKCL [Phage-432] it is 1.71. The same measure, in the same setting: the figure for YCDGHTEEYMDKCL [Phage-360] is 1.82. In the case of YCDGHHIEYLAKCL [Phage-402], the “Anti-CD28 Fab” value is 1.75.

In a further assay the target is T2, Anti-CD28 Fab (SEQ ID NOs: 202, 203).
T2 construct: biotinylated and captured on neutravidin coated plates in the phage ELISA
T2 sequence (VH, as listed by the source, chain 1 of 2): as the sequence (VH, as listed by the source, chain 1 of 2) above
T2 sequence (VL, as listed by the source, chain 2 of 2): as the sequence (VL, as listed by the source, chain 2 of 2) above
Kind of assay: phage ELISA, Fab on plate.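 Note: crude clonal phage supernatants added to wells pretreated with blocking buffer with or without CD28 antigen, then bound phage read out via HRP-linked anti-M13 antibody.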
Protocol: After panning, phage infected bacteria were plated out and colonies picked into 96 well blocks. Clonal phage was then amplified and separated from bacterial cells via centrifugation.
Clonal phage were harvested as crude supernatants and screened via standard ELISAs. […] Prior to the addition of clonal phage, wells were incubated with blocking buffer and CD28 antigen or blocking buffer alone. Without washing or aspirating, clonal phage supernatants were then added to the wells and incubated for a short time. Wells were then washed followed by detection of bound phage using a horse radish conjugated anti-M13 antibody. Clonal phage of interest were then sent for sequence analysis.
For the molecule YCQGHLPQYIEKCL [Phage-721], the “Anti-CD28 Fab” value was 1.14. As for YCDGHLQMYMMKCL [Phage-724], the “Anti-CD28 Fab” value is 1.14.

Turning to YCEGHAAAYMGKCL [Phage-722], the “Anti-CD28 Fab” value was determined as 1.14.

Take YCVGHSEQYMAKCL [Phage-726]: the “Anti-CD28 Fab” value turned out to be 1.13. The same measure, in the same setting: in the case of YCDGHEQQYMEKCL [Phage-723] it was 1.14; in that of YCEGHAEQYMKKCL [Phage-728], 1.12; in that of YCEGHLYEYMWKCL [Phage-725], 1.13.

As to YCEGHVAEYRAKCL [Phage-720], the “Anti-CD28 Fab” value was 1.15.
